Test results taken from PMC5736309.

Target: Y1F Rpb1 (Rpb1 with a CTD of 26 FSPTSPS repeats) (S. cerevisiae)
Experiment: co-IP

B1: 3HA-tagged Nrd1 (natural protein)
chain: MQQDDDFQNFVATLESFKDLKSGISGSRIKKLTTYALDHIDIESKIISLIIDYSRLCPDSHKLGSLYIIDSIGRAYLDETRSNSNSSSNKPGTCAHAINTLGEVIQELLSDAIAKSNQDHKEKIRMLLDIWDRSGLFQKSYLNAIRSKCFAMDISNNTANTASQQLSLDPKQRSKQILSNLKKSPPLNLNISLPTDLTSTDPAKQQAALFQVIAALQKHFKTLPSHTSVGTVAPPQAHTITEYGSRRERERERERYNSRRNRSRSPPAPFSQPSTGRKDRYPSVAQDQYSIGAPNTTFGTNNHHLYPDELNVSNNPHYRPKPVSYDSTLPPDHIKVYSRTLFIGGVPLNMKEWDLANVLKPFAEVQSVILNNSRKHAFVKVYSRHEAENVLQNFNKDGALPLRTRWGVGFGPRDCCDYQHGYSIIPMHRLTDADKKWSVSAQWGGTSGQPLVTGIVFEEPDIIVGEGVSSKAISQKMPTDSGRNGPRSGKPNKSGSISSISPVPYGNAPLASPPPQQYVQPMMQQPYGYAPNQPLPSQGPAAAAPPVPQQQFDPTAQLNSLMNMLNQQQQQQQQS
With B1 the fold change in binding against WT Rpb1 was 7.3 fold.
